For assay [1], the target named is T1, HIS-tagged canine PD-1 ECD protein (canine).
T1 construct: also called PD-1 HIS; canine PD-1 ECD-HIS tagged protein; not shown: HIS tag
T1 chain: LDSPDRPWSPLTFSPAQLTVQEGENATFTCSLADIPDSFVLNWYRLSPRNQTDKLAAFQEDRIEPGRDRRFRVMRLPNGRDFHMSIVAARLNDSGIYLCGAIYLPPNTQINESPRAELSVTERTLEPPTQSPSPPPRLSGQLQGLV
Kind of assay: ELISA on the extracellular domain of canine PD-1.

In assay [2] the target is T2, recombinant human CD64 protein (R&D systems) (human, UniProt P12314 16-288).
T2 construct: Bought protein; also called FcγRI; FcRγI
Kind of assay: ELISA: antibody captured on PD-1 HIS, recombinant human CD64 added. How it is done:
Binding to FcRγI is a measure of the ability of an antibody to mediate ADCC. In order to assess this property for the caninized antibodies an assay to measure binding of caninized antibodies to FcγRI was conducted as follows: Coat 96-well plates with 100 μl per well of 2.5 μg/mL PD-1 HIS. Incubate at 2-7° C. overnight. Equilibrate the plates to room temp for 15 minutes. Wash plates 3× with phosphate buffered saline containing 0.05% Tween® 20 (PBST) and then block the wells using 200 μL/well of 5% NFDM (Non Fat Dried Milk). Incubate for 60 minutes at 36-38° C. Wash 3× with PBST. Make 2-fold dilution of antibodies starting at 1 μg/mL in 5% NFDM. Add 100 μL/well of diluted antibodies. Incubate for 60 minutes at 36-38° C. Wash 6× with PBST. Add 100 μL/well of recombinant human CD64 protein (R&D systems) diluted to 1 μg/mL. Incubate for 60 minutes at 36-38° C. Wash 6× with PBST. Add 100 μL/well biotinylated-anti-CD64 antibody (R&D systems) diluted to 1:3000. Incubate for 60 minutes at 36-38° C. Wash 6× with PBST. Add 100 μL/well Streptavidin-HRP antibody (R&D systems) diluted to 1:7500. Incubate for 60 minutes at 36-38° C. Wash 6× with PBST. Add 100 μL/well TMB substrate. Incubate for 10 minutes at 15-30° C. Read plates using ELISA plate reader at 450-540 nm.

Assay [3] concerns the target T3, canine PD-1 (canine).
T3 construct: also called canine PD-1 antigen; cPD-1
T3 chain: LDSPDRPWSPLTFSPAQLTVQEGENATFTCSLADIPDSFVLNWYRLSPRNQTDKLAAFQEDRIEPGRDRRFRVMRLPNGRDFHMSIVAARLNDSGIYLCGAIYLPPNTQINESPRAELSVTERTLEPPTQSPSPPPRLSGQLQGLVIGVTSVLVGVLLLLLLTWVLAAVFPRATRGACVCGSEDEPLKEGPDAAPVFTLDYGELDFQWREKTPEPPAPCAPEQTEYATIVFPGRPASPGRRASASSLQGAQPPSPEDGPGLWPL
Kind of assay: SPR (Biacore T200), canine PD-1 amine-coupled, antibody as analyte, 1:1 fit; off-rate below the detection limit.

The target of assay [4] is T3, canine PD-1. Kind of assay: SPR (Biacore T200), canine PD-1 amine-coupled, antibody as analyte, 1:1 fit.

Changes are numbered by the printed parent chain.

The text below walks through data of patent US20190002562A1 (INTERVET, published 2019).

T2 sequence (P12314 16-288 limits assumed): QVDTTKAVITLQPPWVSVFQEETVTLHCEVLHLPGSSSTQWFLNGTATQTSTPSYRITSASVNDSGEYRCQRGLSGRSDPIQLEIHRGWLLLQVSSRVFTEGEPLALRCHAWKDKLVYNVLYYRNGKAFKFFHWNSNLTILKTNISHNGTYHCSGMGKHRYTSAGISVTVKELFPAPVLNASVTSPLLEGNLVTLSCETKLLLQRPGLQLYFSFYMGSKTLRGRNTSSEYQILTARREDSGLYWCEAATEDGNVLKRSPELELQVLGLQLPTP

B1: 3B6 VH3 IgGB / VL3 (antibody, V domains shown)
VH: EVQLVQSGGDLVKPGGSVRLSCVASGYTFTTYGMSWVRQAPGKGLQWMGWINIYSGIPTYADDFKGRFTFSLDTAKNTAYLQLNSLRAEDTAVYYCTRFDGPDYWGQGTLVTVSS
VL: DIVMTQTPLSLSVSPGEPASMSCKSSQSLLNSVNQKNYLAWYRQKPGQSPQVLVYFASARVSGVPDRFIGSGSGTDFTLRISRVEADDLGVYYCQQYFSTPLTFGQGTKLELKR
notes: copies: 2 + 2
Consider B1, for which the “EC50 (read off the curve)” value in assay [1] was around 100 pM.

B2: can2H9 ADCC mut-2 VH4/VL3 (antibody)
heavy: EVQLVQSGGDLVKPGGSVRLSCVASGFNIKNTYMHWVRQAPGKGLQWIGRIAPANVDTKYAPKFQGKATISADTAKNTAYMQLNSLRAEDTAVYYCVLIYYDYDGDIDVWGQGTLVTVSSASTTAPSVFPLAPSCGSTSGSTVALACLVSGYFPEPVTVSWNSGSLTSGVHTFPSVLQSSGLYSLSSMVTVPSSRWPSETFTCNVAHPASKTKVDKPVPKRENGRVPRPPDCPKCPAPEMLGGPSVFIFPPKPKDTLLIARTPEVTCVVVDLDPEDPEVQISWFVDGKQMQTAKTQPREEQFAGTYRVVSVLPIGHQDWLKGKQFTCKVNNKALPSPIERTISKARGQAHQPSVYVLPPSREELSKNTVSLTCLIKDFFPPDIDVEWQSNGQQEPESKYRTTPPQLDEDGSYFLYSKLSVDKSRWQRGDTFICAVMHEALHNHYTQESLSHSPGK
light: DIVMTQTPLSLSVSLGEPASISCHASQNINVWLSWYRQKPGQIPQLLIYKASHLHTGVPDRFSGSGSGTDFTLRISRVEADDAGVYYCQQGQSWPLTFGQGTKVEIKRNDAQPAVYLFQPSPDQLHTGSASVVCLLNSFYPKDINVKWKVDGVIQDTGIQESVTEQDSKDSTYSLSSTLTMSSTEYLSHELYSCEITHKSLPSTLIKSFQRSECQRVD
notes: also called can2H9 VH4 IgGB ADCC (mut-2)/VL3; YZZ1058/Mut-2
Consider B2, for which, in assay [2], the binding result is reported as “binds”.

B3: can2H9 ADCC (1062) VH4/VL3 (antibody)
heavy: B2 heavy with D271A
light: B2 light
notes: also called YZZ1062
Turning to B3, in assay [2], the binding result was “no binding”. In addition, the “EC50 (read off the curve)” value in assay [1] was around 300 pM.

B4: can 2H9 IgGB ADCC (1068) VH4/VL3 (antibody)
heavy: B2 heavy with P244A, D271A, A333G, P335A
light: B2 light
notes: also called can2H9 VH4 IgGB ADCC (1068)/VL3; YZZ1068
Consider B4, for which the binding result in assay [2] is given as “no binding”.

B5: Murine 2H9 (antibody, V domains shown)
VH: EVQLQQSVAELVRPGASVKLSCTASGFNIKNTYMHWIKQRPEQGLEWIGRIAPANVDTKYAPKFQGKATITADTSSNTAYMQLSTLTSEDTAIYYCVLIYYDYDGDIDVWGTGTTVTVSS
VL: DIQMNQSPSSLSASLGDTITITCHASQNINVWLSWYQQRPGNIPKLLIYKASHLHTGVPSRFSGSGSGTGFTLTISSLQPEDIATYYCQQGQSWPLTFGAGTKLELK
In the assay with canine PD-1 [3], B5 registered a Kd of at most 200 pM and an off-rate (koff) of at most 5e-06 s⁻¹. In the assay with canine PD-1 [4], the association rate constant (kon) amounted to 23000 M⁻¹ s⁻¹.
